This series has as its system MS2 coat protein. The experiment in a line: apparent KD of MS2 coat protein; designed switch direction (-1 OFF switch, 1 ON switch): -1; higher = weaker reporter binding. Put shortly:
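Stalled E. coli RNA polymerase transcribed designed RNA switches on Illumina chips, which were then titrated with SNAP-549-labelled MS2 coat protein, doubling from 0.7 or 1.5 nM to 3 µM. Steps lasted from 0.8–1.5 h at the lowest concentration to 10–20 min at the highest. The apparent KD is each design's median over clusters of curve-fitted normalised fluorescence.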

Setting [1] is: Eterna round: R95, input ligand: FMN 200 uM.
Where [2] appears, read: Eterna round: R95, input ligand: microRNA oligo, concentration not stated.
[3] abbreviates: Eterna round: R95, input ligand: none.
Setting [4] is: input ligand: microRNA oligo, concentration not stated.

In the case of “CUAGAUCUUCGGAUCUAGUACAUGAGGAUCACCCAUGUGACGAGUUACAUGUUUUACAAGCUUUUUGCUCGUCUUAU [Sensor v3 - Turn-off variant 1 - 13] (puzzle: Sensor v3, turn-off variant 1)”, the “apparent KD of MS2 coat protein” value came to 39.4 nM under setting [1], 90.7 nM under setting [2] and 40.5 nM under setting [3].

In the case of “CUAGCGAGUGUAGGAUAUCGGACUGUUUCAGUCUGAGAAGGACAUGAGGAUCACCCAUGUGUAGCUACGUGAGUAGCACGCUAG [JL ENG1 3.88] (Eterna round: R96, puzzle: Exclusion NG 1)”, the “apparent KD of MS2 coat protein” value was 40.2 nM (input ligand: FMN 200 uM), 15 nM under setting [4] and 22.3 nM (input ligand: none).

On to “CUAGCGGAUGUAGGAUAUCGGACUGUUUCAGUCUGAGAAGGACAUGAGGAUCACCCAUGUAUAGCUACGUGAGUAGCUCGCUAG [JL ENG1 3.95] (Eterna round: R96, puzzle: Exclusion NG 1)”, for which the “apparent KD of MS2 coat protein” value reads like this: (input ligand: FMN 200 uM) 38.1 nM; under setting [4], 15.3 nM; (input ligand: none) 22.8 nM.

Regarding “CUAGCGGAUGUAGGAUAUCGGACUGUUUCAGUCUGAGAAGGACAUGAGGAUCACCCAUGUAUAGCUGCGUGAGUAGCUCGCUAG [JL ENG1 3.96] (Eterna round: R96, puzzle: Exclusion NG 1)”, the “apparent KD of MS2 coat protein” value turned out to be 39.2 nM (input ligand: FMN 200 uM), 17.5 nM under setting [4] and 19.8 nM (input ligand: none).

In the case of “CUAGUAUAUCAGGAUAUGAUUUUAUAUAGUUGAUCAGAAGGGAUAACAUGAGGAUCACCCAUGUUAAGGAGUGA [JR_Ex6_Sub042] (Eterna round: R97, puzzle: Exclusion 6)”, the “apparent KD of MS2 coat protein” value (input ligand: FMN 200 uM) is 99.2 nM and the “apparent KD of MS2 coat protein” value (input ligand: none) was 38.7 nM.

In the case of “CUAGUCCGAGGAUAUAUUAUGUGAAACAUGAGGAUCACCCAUGUAAUAUGAUGGAAAUAAAUAGAAGGCGGACUAG [Mat - Exclusion 5 - JL mod - D33] (puzzle: Exclusion 5)”, the “apparent KD of MS2 coat protein” value under setting [1] is 25.7 nM, the “apparent KD of MS2 coat protein” value under setting [2] is 30.9 nM and the “apparent KD of MS2 coat protein” value under setting [3] was 30.2 nM.

Turning to “CUCAGACAUGAGGAUCACCCAUGUGAGGAUAUGAUGCGAUCGUCGAAAGACGAUAGCAUCAGAAGGCACAAAUG [Fiskers Ex 1 - 24] (puzzle: Exclusion 1)”, the “apparent KD of MS2 coat protein” value under setting [2] turned out to be 71.2 nM.

Consider “CUCAUGCCUGAGGAUAUGCUGUACAAAAGUACUGCAGAAGGCAGGACAUGAGGAUCACCCAUGUGGCGAAAGCC [Omei Ex G10] (Eterna round: R97, puzzle: Exclusion 6)”, for which the “apparent KD of MS2 coat protein” value reads like this: (input ligand: FMN 200 uM) 13.4 nM; (input ligand: none) 198 nM.

As for “CUCAUGUGAGGAUAUGUGAUCUGCUUUCUGUGUAGAUGAUCACAGAAGGCACAUGAGGAUCACCCAUGUAGAUC [Ex4 - 3 - 28] (Eterna round: R96, puzzle: Exclusion 4)”, the “apparent KD of MS2 coat protein” value by setting is: (input ligand: FMN 200 uM) 65.7 nM; under setting [4], 93.9 nM; (input ligand: none) 91 nM.

“CUCAUGUGAGGAUAUGUGAUCUGCUUUCUGUGUAGAUGAUCACAGAAGGCACAUGAGGAUCACCCAUGUAGAUC [Ex4 - 3 - 28] (puzzle: Exclusion 4)”: under setting [2], the “apparent KD of MS2 coat protein” value amounted to 67.5 nM.

With “CUCCGGCGUGUAGGAUAUGGAUCCGAUUAGGAUCCAGAAGGACAUGAGGAUCACCCAUGUACAUGUAGACGGUCGUCACCGGGC [salish99_ExNG1_r04_208] (Eterna round: R96, puzzle: Exclusion NG 1)”, the “apparent KD of MS2 coat protein” value is 195 nM (input ligand: FMN 200 uM), 32 nM under setting [4] and 42.1 nM (input ligand: none).

With “CUCCUCAUGGCGCCUAAACACAUGAGGAUCACCCAUGUACAGGCUUUCUGCCGUCUUAUAAUAAAACCGAGGAUGCG [Soedlexe] (puzzle: Sensor v3, turn-off variant 1)”, the “apparent KD of MS2 coat protein” value is, setting by setting: under setting [1], 33.6 nM; under setting [2], 212 nM; under setting [3], 42.1 nM.

Turning to “CUCCUCCCGAAGGAUAUCCACGCCAACUUCGUAGGAGAAGGUCGGACAUGAGGAUCACCCAUGUGGCCAUGGUU [Gezateza] (puzzle: Exclusion 6)”, the “apparent KD of MS2 coat protein” value under setting [2] stood at 16 nM.

As to “CUCCUCGUGGCGCCUAAACACAUGAGGAUCACCCAUGUACAGGCUUUUUGCCGUCUUACAAUAAAACCGAGGAUACG [Inveon] (puzzle: Sensor v3, turn-off variant 1)”, the “apparent KD of MS2 coat protein” value is, setting by setting: under setting [1], 19.8 nM; under setting [2], 50.8 nM; under setting [3], 20.4 nM.

For the sequence “CUCGGACAUGAGGAUCACCCAUGUGAGGAUAUGGUGCUAUCGUCAUUAGACGAUUGCGUUAGAAGGCACAAAUG [LRO-Excl1-28] (puzzle: Exclusion 1)”, the “apparent KD of MS2 coat protein” value under setting [2] was found to be 35.2 nM.

“CUCGGGAGUCAGGAUAUCGGCACAUAUCAAUCACGAGAAGGGACGACAUGAGGAUCACCCAUGUGGGAAAAGAA [Bivetilaza] (puzzle: Exclusion 6)”: the “apparent KD of MS2 coat protein” value reads like this: under setting [1], 92.9 nM; under setting [2], 38.1 nM; under setting [3], 41.7 nM.

For “CUCGUGUGAGGAUAUUCACACCCGUCAAAACAACGGACAAAGAAGAAGGCACAUGAGGAUCACCCAUGUAAAGA [Usenisor] (Eterna round: R97, puzzle: Exclusion 4)”, the “apparent KD of MS2 coat protein” value stood at 92.1 nM (input ligand: FMN 200 uM) and 106 nM (input ligand: none).

For the sequence “CUCGUGUUAGGAUAUCUAUCGCGGAUGACAGAGAGGACGUUGGAGAAGGAACAUGAGGAUCACCCAUGUUCUGG [Eternabot (L2) Solution 86] (Eterna round: R97, puzzle: Exclusion 4)”, the “apparent KD of MS2 coat protein” value was found to be 18.8 nM (input ligand: FMN 200 uM) and 14.5 nM (input ligand: none).

On to “CUCUAGUCAGGAUAUCACGUUUACCGUGCACUCACAAAGCCUGAGAAGGGACUUGAGGAUCACCCAAGUGGGAA [Reedbequ] (Eterna round: R97, puzzle: Exclusion 4)”, for which the “apparent KD of MS2 coat protein” value runs as follows: (input ligand: FMN 200 uM) 211 nM; (input ligand: none) 231 nM.

As to “CUCUCUCAUGUGAGGAUAUCGAGGCAGUCCGCAAACGAGAAGGUACAUGAGGAUCACCCAUGUCAACAGUAAUG [BmEX4 C.8] (Eterna round: R97, puzzle: Brourd's mod of Exclusion 4)”, the “apparent KD of MS2 coat protein” value is 143 nM (input ligand: FMN 200 uM) and 33 nM (input ligand: none).

Regarding “CUCUCUCGAGGAUAUACCGUAUGGUGGAAUCUCCUCGGAAGACAUGAGGAUCACCCAUGUAGAAGGCGAGAUGG [Eternabot (L2) Solution 64] (Eterna round: R97, puzzle: Exclusion 2)”, the “apparent KD of MS2 coat protein” value (input ligand: FMN 200 uM) was 144 nM and the “apparent KD of MS2 coat protein” value (input ligand: none) was determined as 31.3 nM.

Consider “CUCUUGUUAGGAUAUCAAACUGGCAGCGGAGCUGGCAGAAGUGAGAAGGGACAUGAGGAUCACCCAUGUAAGAA [Aristeza] (puzzle: Exclusion 4)”, for which, under setting [2], the “apparent KD of MS2 coat protein” value is 70.2 nM.

Take “CUGAACUGAGGAUAUACAUGAGGAUCACCCAUGUGAUGUAGUGCACGCGUACGUGUACGUAGAAGGCAGUUCAG [Mat - Exclusion 3 - Eli Mod - D42] (Eterna round: R97, puzzle: Exclusion 3)”: the “apparent KD of MS2 coat protein” value is, setting by setting: (input ligand: FMN 200 uM) 56.1 nM; (input ligand: none) 19.8 nM.

In the case of “CUGAAGAAGUUAGUGGCCUACAUGAGGAUCACCCAUGUGAGGGACAUGUCGAGGCAGAAGCUGAGUGCUCGUCUGUA [JR_SV3TOV1_Sub042] (puzzle: Sensor v3, turn-off variant 1)”, the “apparent KD of MS2 coat protein” value runs as follows: under setting [1], 16 nM; under setting [2], 20 nM; under setting [3], 17 nM.

Turning to “CUGACUCAAGGAUAUUGUACUGCUGACAUGAGGAUCACCCAUGUAUGUUAACUCGGCCGACGAGAAGGUGACAAAA [BotMod 7 - Jieux - Exclusion 5] (Eterna round: R97, puzzle: Exclusion 5)”, the “apparent KD of MS2 coat protein” value by setting is: (input ligand: FMN 200 uM) 126 nM; (input ligand: none) 111 nM.

As to “CUGAGCUGAGGAUAUACAUGAGGAUCACCCAUGUGUUGGAGCUUGCGUACAGGCAGAUGUAGAAGGCAGUUCGG [JL-ex3-3.32 Brourd mod] (puzzle: Exclusion 3)”, under setting [2], the “apparent KD of MS2 coat protein” value came out at 19.5 nM.

As to “CUGAGGUAGCGGUCCUAUGACAUGAGGAUCACCCAUGUACCUUGCUUUGAGCUUUUAGCUCGUCUUAUGAUUCUCGG [Mat - Sensor v3 - turn-off var 1 - JL Mod - D43] (puzzle: Sensor v3, turn-off variant 1)”, the “apparent KD of MS2 coat protein” value was 271 nM under setting [1], 235 nM under setting [2] and 446 nM under setting [3].

Take “CUGCCGAGAGGAUAUACUAAGCGAAGAGCCUCAUAAAAGUUACAUGAGGAUCACCCAUGUAGAAGGCUUGGGAG [Eternabot (Original) Solution 38] (Eterna round: R97, puzzle: Exclusion 2)”: the “apparent KD of MS2 coat protein” value reads like this: (input ligand: FMN 200 uM) 104 nM; (input ligand: none) 54.4 nM.

“CUGGACCCGGCAGGAUAUAUUGUGGGCGGGCGUGGAACGACAUGAGGAUCACCCAUGUGAUUGAGGUAGAAGGGCCGAGAGGUC [Excl-NG2-LRO20] (Eterna round: R96, puzzle: Exclusion NG 2)”: the “apparent KD of MS2 coat protein” value by setting is: (input ligand: FMN 200 uM) 38.5 nM; under setting [4], 30.6 nM; (input ligand: none) 47.7 nM.

Take “CUGGAGUCAGGAUAUGACGCAGUCCGCCCAAGUGGCGGAAAUCAGAAGGGACUUGAGGAUCACCCAAGUAAAAG [Resorama] (Eterna round: R97, puzzle: Exclusion 4)”: the “apparent KD of MS2 coat protein” value runs as follows: (input ligand: FMN 200 uM) 26.8 nM; (input ligand: none) 29.8 nM.

Take “CUGGUCCGAGGAUAUAUAUUGUGAUACAUGAGGAUCACCCAUGUAAUAAUAUGGAUAUAAAUAGAAGGCGGACUAG [Mat - Exclusion 5 - JL mod - D49] (puzzle: Exclusion 5)”: the “apparent KD of MS2 coat protein” value is 35.8 nM under setting [1], 23 nM under setting [2] and 27.7 nM under setting [3].

The values are drawn from the supplement of paper PMC9170038.
